Test results as given in paper doi:10.1101/2021.05.19.444882.

Assays:
[1] = molecular target: ChAdOx1 fiber-knob protein (chimpanzee adenovirus Y25 (ChAdV-Y25)); experiment: crystal structure
[2] = molecular target: ChAdOx1 hexon protein (chimpanzee adenovirus Y25 (ChAdV-Y25)); experiment: cryo-EM structure
[3] = molecular target: ChAdOx1 pIX (chimpanzee adenovirus Y25 (ChAdV-Y25)); experiment: cryo-EM structure
[4] = molecular target: ChAdOx1 penton protein (chimpanzee adenovirus Y25 (ChAdV-Y25)); experiment: cryo-EM structure

ChAdOx1 fiber-knob protein (domain or fragment)
stoichiometry N [1]: 3

ChAdOx1 hexon protein (natural protein)
stoichiometry N [2]: 3

ChAdOx1 pIX (natural protein)
stoichiometry N [3]: 4

ChAdOx1 penton protein (natural protein)
stoichiometry N [4]: 5
